Source: article doi:10.1101/2022.12.04.519012 (bioRxiv, 2022)

Biological target: DDB1 with N terminal Twin-Strep-FLAG (TSF) tag (human, UniProt Q16531 1-1140)
Assay: cryo-EM structure

DDB1 with N terminal Twin-Strep-FLAG (TSF) tag, sequence (Q16531 whole entry): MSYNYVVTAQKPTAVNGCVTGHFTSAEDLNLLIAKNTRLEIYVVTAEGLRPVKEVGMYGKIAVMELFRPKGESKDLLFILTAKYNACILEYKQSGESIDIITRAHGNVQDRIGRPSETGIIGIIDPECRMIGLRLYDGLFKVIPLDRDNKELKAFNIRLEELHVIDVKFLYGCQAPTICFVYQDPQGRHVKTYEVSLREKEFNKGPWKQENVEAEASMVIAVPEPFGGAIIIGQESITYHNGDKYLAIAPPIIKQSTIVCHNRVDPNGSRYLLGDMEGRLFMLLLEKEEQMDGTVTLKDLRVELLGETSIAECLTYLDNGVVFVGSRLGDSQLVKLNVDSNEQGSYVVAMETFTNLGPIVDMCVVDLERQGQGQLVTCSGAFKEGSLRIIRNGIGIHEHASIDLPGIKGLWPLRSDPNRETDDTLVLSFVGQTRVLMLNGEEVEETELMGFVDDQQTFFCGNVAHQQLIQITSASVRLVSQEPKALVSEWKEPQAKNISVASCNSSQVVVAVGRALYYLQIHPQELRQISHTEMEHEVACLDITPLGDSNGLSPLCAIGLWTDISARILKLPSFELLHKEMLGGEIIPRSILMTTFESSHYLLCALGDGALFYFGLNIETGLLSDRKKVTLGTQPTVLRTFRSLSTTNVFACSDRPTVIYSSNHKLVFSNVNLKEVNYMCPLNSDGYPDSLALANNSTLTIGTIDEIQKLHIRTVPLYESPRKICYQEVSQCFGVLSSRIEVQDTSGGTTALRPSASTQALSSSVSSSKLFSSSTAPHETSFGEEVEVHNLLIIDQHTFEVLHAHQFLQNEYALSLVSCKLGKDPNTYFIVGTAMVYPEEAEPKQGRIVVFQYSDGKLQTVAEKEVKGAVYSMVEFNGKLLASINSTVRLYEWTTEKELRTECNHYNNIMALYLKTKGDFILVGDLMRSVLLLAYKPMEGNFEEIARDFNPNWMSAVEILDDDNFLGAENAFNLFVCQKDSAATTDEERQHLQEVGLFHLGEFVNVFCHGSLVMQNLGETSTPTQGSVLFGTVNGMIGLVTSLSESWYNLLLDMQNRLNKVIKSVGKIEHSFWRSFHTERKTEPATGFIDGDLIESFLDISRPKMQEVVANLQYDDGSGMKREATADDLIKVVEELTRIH

binding result: binds
B1: AMBRA1^WD40 (residues 1-204 directly fused to residues 853-1044) (domain or fragment)
chain: MKVVPEKNAVRILWGRERGARAMGAQRLLQELVEDKTRWMKWEGKRVELPDSPRSTFLLAFSPDRTLLASTHVNHNIYITEVKTGKCVHSLIGHRRTPWCVTFHPTISGLIASGCLDGEVRIWDLHGGSESWFTDSNNAIASLAFHPTAQLLLIATANEIHFWDWSRREPFAVVKTASEMERVRLVRFDPLGHYLLTAIVNPSNSNIANTTYRLQWWDFTKFDLPEISNASVNVLVQNCKIYNDASCDISADGQLLAAFIPSSQRGFPDEGILAVYSLAPHNLGEMLYTKRFGPNAISVSLSPMGRYVMVGLASRRILLHPSTEHMVAQVFRLQQAHGGETSMRRVFNVLYPMPADQRRHVSINSARWLPEPGLGLAYGTNKGDLVICRPEALNSG
